These results are taken from US20200377587A1.

One assay concerns the target IL-8 (77-mer) (UniProt P10145). Description: binding kinetics, FIG. 1B.
For another assay, the target named is IL-8 (72-mer) (UniProt P10145). The assay can be described thus: binding kinetics, FIG. 1B.
For assay [1], the target named is IL-8 (UniProt P10145). The assay can be described thus: SPR, immobilized IL-8, scFv, 25 C.
Assay [2] has as its target IL-8 (UniProt P10145). Description: SPR, scFv, preliminary KD, lowest and highest value.
The target in assay [3] is IL-8 (UniProt P10145). Description: cell-based or functional assay.

Sequence of IL-8 (P10145 28-99 limits assumed): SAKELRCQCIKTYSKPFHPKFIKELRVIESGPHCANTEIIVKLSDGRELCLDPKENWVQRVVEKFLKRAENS
Sequence of IL-8 (72-mer) (P10145 28-99 limits assumed): as above
Sequence of IL-8 (77-mer) (P10145 23-99 limits assumed): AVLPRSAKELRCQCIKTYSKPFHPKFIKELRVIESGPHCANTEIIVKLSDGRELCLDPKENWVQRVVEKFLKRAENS

B1: scFv 49-31 (scFv, part only; not given: linker and domain order, V domains shown, not shown: another chain or arm of the molecule; small tags and cut ends)
VH: EVQLVESGGGLVQPGGSLRLSCAASGFTFSSYYMHWVRQAPGKGLEWVSAISGGGSSTYYADSVKGRFTISRDNSKNTLYLQMNSLRAEDTAVYYCARDLRIFEGRDAGFDVWGQGTLVTVS
VL: DIQMTQSPSSLSASVGDRVTITCQASQDISNYLNWYQQKPGKAPKLLIYDASNLETGVPSRFSGSGSGTDFTFTISSLQPEDIATYYCQQDDDVPWTFGQGTKVEIK
With B1, the equilibrium dissociation constant (Kd) in the assay with IL-8 (77-mer) is 0.12 nM; in the assay with IL-8 (72-mer), 0.147 nM; with IL-8 [1], 0.009 to 0.048 nM; in the assay with IL-8 [2], 0.009 to 0.048 nM. For the same molecule, in the assay with IL-8 [3], the reduction of transmigration of neutrophils (IL-8 mediated neutrophil chemotaxis, transwell, 1 nM IL-8, 1.5 and 3 hours) fell in the range of 30 to 70%.

B2: scFv 49-1 (scFv, part only; not given: linker and domain order, V domains shown, not shown: another chain or arm of the molecule; small tags and cut ends)
VH: EVQLVESGGGLVQPGGSLRLSCAASGFTFSSYWMHWVRQAPGKGLEWVSAISWSGGSTSYADSVKGRFTISRDNSKNTLYLQMNSLRAEDTAVYYCARDLTWWVQAFDVWGQGTLVTVSS
VL: DIQMTQSPSSLSASVGDRVTITCQASQDISNYLNWYQQKPGKAPKLLIYDASNLETGVPSRFSGSGSGTDFTFTISSLQPEDIATYYCQQVDDSPLTFGQGTKVEIK
B2 yielded a Kd with IL-8 [1] of 2.66 nM.

As a reminder, the Kd is the constant that tells how readily two partners part at equilibrium. Read a high Kd as lower affinity.
